{"source": "paper PMC4967043", "target": "(SIM)m, m = 1", "assay": "ITC", "note": "pKd: −log10 of the molar value.", "data": [{"substance": "(SUMO)m, m = 1 (from UniProt P55854 1-92) (natural protein)", "values": [{"measurement": "pKd", "value": 5.00}]}]}
